Experimental data as given in patent US20230002489A1 (SHANGHAI EPIMAB BIOTHERAPEUTICS, published 2023).
Where a chain is given by its changes, count along the chain named.

Assays:
BCMA on NCI-H929 cells = biological target: T1, BCMA on NCI-H929 cells (human, UniProt Q02223 1-184); experiment: cell-based or functional assay
T1 sequence (looked up): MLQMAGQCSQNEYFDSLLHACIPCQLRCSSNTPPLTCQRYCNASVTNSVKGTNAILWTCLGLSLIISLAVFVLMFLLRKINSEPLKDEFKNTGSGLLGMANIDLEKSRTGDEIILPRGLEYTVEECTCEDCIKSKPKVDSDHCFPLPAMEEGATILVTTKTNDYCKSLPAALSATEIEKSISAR

[1] = biological target: T2, BCMA on HEK293F-BCMA-NF-kB-luc cells (clone 1H2) (UniProt Q02223 1-184, limits assumed); experiment: cell-based or functional assay
T2 sequence (looked up): T1 sequence (looked up)

[2] = biological target: T2, BCMA on HEK293F-BCMA-NF-kB-luc cells …; experiment: cell-based or functional assay; remark: listed apart in the source
[3] = biological target: T3, recombinant human BCMA extracellular domain/Fc dimer (human); experiment: SPR, Biacore T200, 25 C; antibody captured on anti-mouse IgG Fc, BCMA(ECD)/Fc injected
T3 construct: also called Human BCMA (ECD); human BCMA(ECD)/Fc
Experimental: (§1) Briefly, goat anti-mouse IgG Fc antibody was directly immobilized across a biosensor chip, and antibody samples were injected over reaction matrices at a flow rate of 5 μl/min. Mouse anti-BCMA IgG test antibody was injected over the immobilized surface and captured by the immobilized anti-Fc antibodies. Human and cynomolgus BCMA(ECD)/Fc target polypeptides were then injected over the captured mouse anti-BCMA IgG surface. The association and dissociation rate constants, kₒₙ (M⁻¹s⁻¹) and koff (s⁻¹), respectively, were determined with a continuous flow rate of 30 μl/min. Rate constants were derived by making kinetic binding measurements at five different concentrations of target BCMA(ECD) polypeptide. The equilibrium dissociation constant KD (M) of the reaction between antibodies and related target proteins was then calculated from the kinetic rate constants using the formula KD=koff/kₒₙ. Kinetic constants were determined by processing and fitting the data to a 1:1 binding model using Biacore analysis software.

[4] = biological target: T4, cynomolgus BCMA(ECD)/Fc target polypeptide (cynomolgus); experiment: as above
T4 construct: extracellular domain; also called Cyno BCMA (ECD); cynoBCMA/Fc
Experimental: as §1

[5] = biological target: T5, human CD3 on the surface of Jurkat cells (human, UniProt P07766 23-207; P09693 23-182; P04234 22-171); experiment: cell binding assay, Jurkat cells
T5 construct: whole, on cells; Endogenous CD3 complex of the Jurkat T cell line; also called cell surface CD3 target on Jurkat cells; CD3-expressing Jurkat cells

[6] = biological target: T6, cynoCD3εγ/Fc fusion protein (cynomolgus monkey, UniProt Q95LI5 22-117; Q95LI7 23-113); experiment: ELISA on plate-coated cyno CD3e/g heterodimer-Fc, OD450nm, unit taken from the concentration axis
T6 construct: also called cynomolgus monkey CD3ε/γ heterodimer-Fc fusion protein; not shown: linker and Fc not described for the cynomolgus construct
T6 sequence (looked up) 1: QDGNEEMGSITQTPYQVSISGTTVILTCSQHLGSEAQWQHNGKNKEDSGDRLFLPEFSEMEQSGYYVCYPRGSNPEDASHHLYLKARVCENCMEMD
T6 sequence (looked up) 2: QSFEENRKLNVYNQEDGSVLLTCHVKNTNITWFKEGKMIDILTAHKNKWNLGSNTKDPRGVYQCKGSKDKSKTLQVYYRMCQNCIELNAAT
Experimental: (§2) The binding properties of the isolated murine anti-CD3 antibodies were measured with ELISA as follows: Heterodimeric CD3εγ/Fc fusion protein was coated at 1 μg/mL on 96-well plates at 4° C. overnight. Plates were washed once with washing buffer (PBS containing 0.05% Tween 20) and blocked with ELISA blocking buffer (1% BSA in PBS containing 0.05% Tween 20) at room temperature for 2 hours. Anti-CD3 antibodies were then added and incubated at 37° C. for 1 hour. Plates were washed three times with washing buffer. HRP labeled anti-mouse IgG secondary antibody (Sigma, Cat. #A0168) was added and the plates were incubated at 37° C. for 30 minutes then washed 5 times in washing buffer. 100 μl of tetramethylbenzidine (TMB) chromogenic solution was added to each well. Following color development, the reaction was stopped with 1 Normal HCl and absorbance at 450 nm was measured on a Varioskan™ LUX microplate reader (ThermoFisher Scientific). Binding signals were plotted against antibody concentration with GraphPad Prism 5.0 software and EC50s were calculated accordingly.

[7] = biological target: T7, recombinant huCD3εγ/Fc fusion protein (fusion protein heterodimer) (human); experiment: ELISA on plate-coated human CD3e/g heterodimer-Fc, OD450nm, unit taken from the concentration axis
T7 construct: also called huCD3/Fc dimer; heterodimeric CD3εγ/Fc fusion protein
Experimental: as §2

[8] = biological target: T5, human CD3 on the surface of Jurkat cells; experiment: flow cytometry on Jurkat cells, MFI against antibody conc. (nM)
Experimental: Different humanized VH and VK combinations led to humanized anti-CD3 variants with different CD3 binding affinities. The binding activity of the humanized variants of mAbCD3-001 were tested via flow cytometry with the human CD3-expressing Jurkat T cell line. 5×10⁵ Jurkat cells in FACS buffer were seeded into each well of a 96-well plate. Cells were centrifuged at 400 g for 5 minutes and supernatants were discarded. For each well, 100 μl of serially diluted antibodies were then added and mixed with the cells. After 40 minutes incubation at 4° C., plates were washed several times to remove excess antibodies. […] After another round of centrifugation and a washing step, cells were resuspended in FACS buffer for reading on a CytoFLEX Flow Cytometer (Beckman Coulter). Median Fluorescence Intensity (MFI) readouts were plotted against antibody concentration and analyzed with GraphPad Prism 5.0 software.

T5 sequence (P07766 23-207, chain 1 of 3): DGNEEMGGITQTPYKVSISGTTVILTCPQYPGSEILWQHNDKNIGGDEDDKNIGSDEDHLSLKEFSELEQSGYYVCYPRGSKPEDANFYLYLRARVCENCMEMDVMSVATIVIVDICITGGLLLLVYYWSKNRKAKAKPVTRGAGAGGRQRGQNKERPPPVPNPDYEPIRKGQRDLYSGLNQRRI
T5 sequence (P09693 23-182, chain 2 of 3): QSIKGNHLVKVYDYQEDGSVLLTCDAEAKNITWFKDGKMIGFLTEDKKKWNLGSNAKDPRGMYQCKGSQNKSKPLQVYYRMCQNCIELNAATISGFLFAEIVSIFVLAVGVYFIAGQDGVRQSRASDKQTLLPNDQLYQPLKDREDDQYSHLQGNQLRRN
T5 sequence (P04234 22-171, chain 3 of 3): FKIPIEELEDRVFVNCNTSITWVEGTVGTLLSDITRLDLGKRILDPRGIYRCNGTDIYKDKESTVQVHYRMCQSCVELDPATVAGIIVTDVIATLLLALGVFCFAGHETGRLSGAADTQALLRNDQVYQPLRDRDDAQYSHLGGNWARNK
T7 sequence (chain, as listed by the source limits assumed, chain 1 of 2): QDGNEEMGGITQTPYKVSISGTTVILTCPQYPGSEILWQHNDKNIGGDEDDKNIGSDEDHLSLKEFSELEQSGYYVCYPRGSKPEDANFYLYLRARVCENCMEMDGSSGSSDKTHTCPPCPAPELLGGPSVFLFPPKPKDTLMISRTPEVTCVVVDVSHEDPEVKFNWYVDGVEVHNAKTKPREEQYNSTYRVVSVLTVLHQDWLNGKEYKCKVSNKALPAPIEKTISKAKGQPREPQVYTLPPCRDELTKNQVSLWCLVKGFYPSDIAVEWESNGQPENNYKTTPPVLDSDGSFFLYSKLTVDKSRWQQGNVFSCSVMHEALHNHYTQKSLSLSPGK
T7 sequence (chain, as listed by the source limits assumed, chain 2 of 2): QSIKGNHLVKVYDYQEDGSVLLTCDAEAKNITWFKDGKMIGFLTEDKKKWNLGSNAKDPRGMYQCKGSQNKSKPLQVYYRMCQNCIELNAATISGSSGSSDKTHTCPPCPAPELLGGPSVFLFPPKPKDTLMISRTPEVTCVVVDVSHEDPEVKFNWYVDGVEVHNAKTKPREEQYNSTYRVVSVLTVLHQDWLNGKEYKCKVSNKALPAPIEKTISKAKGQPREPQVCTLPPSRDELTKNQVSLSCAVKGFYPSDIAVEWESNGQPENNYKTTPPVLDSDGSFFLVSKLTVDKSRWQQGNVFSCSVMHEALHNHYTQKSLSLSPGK

B1: mAbBCMA-003 (antibody, V domains shown)
VH: EVQLQQSGTVLARPGASVRMSCKASGYIFPNFWMHWVKQRPGQGLDWIGAFYPGNDDTYYNQKFKGKAKLTAVTSASTAYMELSSLTSEDSAVYYCARSGYYGSSDAMDYWGQGTSVTVSS
VL: DIQMTQSPASLSASVGETVTVTCGASENIYGALNWYQRKQGKSPQLLIYGATNLADGISSRFSGSGSGRQFSLKISSLLPDDVATYFCQSVLTTPWTFGGGTKLEIK
notes: Mouse anti-BCMA IgG from hybridoma
EC50 of inhibition of BAFF-induced NF-kB phosphorylation in NCI-H929 cells (inhibition %), unit from the axis (BCMA on NCI-H929 cells): 16.7 nM | EC50 of inhibition of the BAFF-induced NF-kB luciferase signal in HEK293F-BCMA-NF-kB-luc cells (inhibition %), unit from the axis [1]: 3.87 nM | EC50 of inhibition of the APRIL-induced NF-kB luciferase signal in HEK293F-BCMA-NF-kB-luc cells (inhibition %), unit from the axis [2]: 6.18 nM | Kd [3]: 0.408 nM | koff [3]: 1.85e-05 s⁻¹ | kon [3]: 45400 M⁻¹ s⁻¹ | Kd [4]: 3.9 nM | koff [4]: 0.000236 s⁻¹ | kon [4]: 60600 M⁻¹ s⁻¹

B2: mAbCD3-001 (antibody, V domains shown)
VH: QVQLQQSGPDLVKPGASVKISCKASGFSFTNYYVHWMKQRPGQGLEWIGWISPGSDNTKYNEKFKGKATLTADTSSTTAYMQLSSLTSEDSAVYYCARDDYGNYYFDYWGRGSTLTVSS
VL: DIVMSQSPSSLAVSAGEKVTMTCKSSQSLLNSRTRKNYLAWYQQKPGQSPKLLIYWASTRESGVPDRFTGSGSGTDFTLTISSVQAEDLAVYYCKQSYILRTFGGGTKLEIK
notes: Murine hybridoma monoclonal antibody
binding result [5]: binds | EC50 [6]: 0.0235 µg/mL | EC50 [7]: 0.028 µg/mL

B3: mAbCD3-002 (antibody, V domains shown)
VH: QVQLQQSGPELVKPGASVRISCKASGYTFTNYYIHWVKQRPGQGLEWIGWINLGDVNTKFNEKFKDKATLTADKSSTTAYMQLSSLTSEDSAVYFCARDGYSFYYFDFWGQGTTLTVSS
VL: B2 VL with A15V, T22S, S25A, L30F, T78I, L79F, V91I, K95I, Y98H, I99T
notes: as for B2
binding result [5]: binds | EC50 [6]: 0.0109 µg/mL | EC50 [7]: 0.01 µg/mL

B4: HuEM0006-01c (antibody, human IgG1, kappa, L234A L235A, V domains shown)
VH: B2 VH
VL: DIVMSQSPSSLAVSAGEKVTMTCKSSQSLLNSRTRKNYLAWYQQKPGQSPKLLIYWASTRESGVPDRFTGSGSGTDFTLTISSVQAEDLAVYYCKQSYILRTFGGGTKLEIKR
notes: also called chimeric control antibody
binding result [8]: binds
